Results on 1 protein are retold here after publication PMC3903776, “Structural Characterization of the Mechanosensitive Channel Candidate MCA2 from Arabidopsis thaliana” (PLoS ONE, 2014).

This data set concerns the molecule itself. Kind of data set: cross-linking; purified MCA2-6H in PBS with 4% APFO; 10 mM glutaraldehyde, room temperature, up to 30 min, stopped with 50 mM Tris-HCl pH 8.0; reducing SDS-PAGE, CBB staining.

B1: MCA2-6H (Arabidopsis thaliana MCA2 with a 6xHis tag fused to the carboxyl terminus) (natural protein, UniProt Q3EBY6 1-416, looked up)
chain: MANSWDQLGEIASVAQLTGIDALKLIGMIVNAANTARMHKKNCRQFAHHLKLIRNLLEQIKNSEMNQRSEILEPLQGLDDALRRSYILVKSCQEKSYLYLLAMGWNIVNQFEKAQNEIDLFLKIVPLINMADNARIRERLEAIERDQREYTLDEEDRKVQDVILKQESTREAATSVLKKTLSRSYPNMGFCEALKTEEEKLQLELQRSRARYDADQCEVIQRLIDVTQTAATVEPNLEKVLTKKEELTSSKKRDDLYDTDSSSIRADSRSTSYVSSGHELLSGRSLQHRGNWHADLLDCCSEPCLCLKTLFFPCGTLAKISTVATSRQISSTEVCKNLIVYSLILSCCCYTCCIRKKLRKTLNITGGCIDDFLSHLMCCCCALVQELREVEIHRASYGTEKSNKEMSPPTPQFMEE
notes: MCA2 of Arabidopsis thaliana, 416 amino acid residues; source: Sf9 cells, baculovirus (Bac-to-Bac), membrane fraction solubilised in APFO, purified (His GraviTrap, Superdex 200 SEC); not shown: 6xHis, C-terminal, kept
For B1, the stoichiometry N – broadly, a count of units in the complex or per binding partner – worked out at 4.
